According to patent US20110008814A1:

Columns and labels:
[1] = molecular target: mouse IgG, anti-human transferrin monoclonal antibody (mfd. by BIO MATRIX RESEARCH, INC.); assay: human transferrin sandwich ELISA, 100 ng/ml transferrin, 375 ng/ml labeled antibody, ABTS
[2] = molecular target: mouse IgG, anti-human transferrin monoclonal antibody (mfd. by BIO MATRIX RESEARCH, INC.); assay: direct ELISA, mouse IgG immobilized from 10 ng/ml, about 0.8 µg/ml secondary antibody, ABTS
[3] = molecular target: mouse IgG, anti-human transferrin monoclonal antibody (mfd. by BIO MATRIX RESEARCH, INC.); assay: human transferrin sandwich ELISA, 100 ng/ml transferrin, luminol emission
[4] = molecular target: mouse IgG, anti-human transferrin monoclonal antibody (mfd. by BIO MATRIX RESEARCH, INC.); assay: human transferrin sandwich ELISA, 100 ng/ml transferrin, luminol emission; reference Comparative Examples 6 to 8
[5] = molecular target: mouse IgG, anti-human transferrin monoclonal antibody (mfd. by BIO MATRIX RESEARCH, INC.); assay: human transferrin sandwich ELISA, 1 ng/ml transferrin, luminol emission
[6] = molecular target: mouse IgG, anti-human transferrin monoclonal antibody (mfd. by BIO MATRIX RESEARCH, INC.); assay: direct ELISA on immobilized mouse IgG, ABTS; reference Comparative Examples 1 and 2
[7] = molecular target: mouse IgG, anti-human transferrin monoclonal antibody (mfd. by BIO MATRIX RESEARCH, INC.); assay: human transferrin sandwich ELISA, 100 ng/ml transferrin, ABTS; reference Comparative Example 3
[8] = molecular target: mouse IgG, anti-human transferrin monoclonal antibody (mfd. by BIO MATRIX RESEARCH, INC.); assay: direct ELISA, mouse IgG immobilized from 100 ng/ml, about 0.8 µg/ml secondary antibody, ABTS
[9] = molecular target: mouse IgG, anti-human transferrin monoclonal antibody (mfd. by BIO MATRIX RESEARCH, INC.); assay: human transferrin sandwich ELISA, 1 ng/ml transferrin, luminol emission; reference Comparative Example 7
[10] = molecular target: mouse IgG, anti-human transferrin monoclonal antibody (mfd. by BIO MATRIX RESEARCH, INC.); assay: human transferrin sandwich ELISA, 1 ng/ml transferrin, luminol emission; reference horseradish POD-labeled antibodies
[11] = molecular target: mouse IgG, anti-human transferrin monoclonal antibody (mfd. by BIO MATRIX RESEARCH, INC.); assay: human transferrin sandwich ELISA, 100 ng/ml transferrin, 400 ng/ml labeled antibody, ABTS

“POD-labeled anti-mouse Fab′ (goat anti-mouse IgG (H+L) antibody, Bethyl A90-116A, pepsin-digested and reduced to Fab′, labeled with maleimidated POD)” was tested, and the absorbance at 405 nm [1] was 1, the absorbance at 405 nm [2] was 0.4 and the initial stage emission value [3] was 4.2e+06 RLU. The fold of initial stage emission value against the horseradish POD-labeled antibodies [4] was over 18 times, the initial stage emission value [5] was 800000 RLU and the fold of absorbance against the horseradish POD-labeled antibody [6] was 1.3 to 1.4 times. It also gave a fold of absorbance against the horseradish POD-labeled antibody [7] of 2.2 times, an absorbance at 405 nm [8] of 1.9 and a fold of initial stage emission value against the horseradish POD-labeled antibody [9] of 8 times.

Substance “POD-labeled anti-mouse IgG (goat anti-mouse IgG (H+L) antibody, Bethyl A90-116A, reduced and labeled with maleimidated POD)” has a fold of initial stage emission value against the horseradish POD-labeled antibodies [10] of over 3 times, an initial stage emission value [3] of 3.5e+06 RLU and a fold of initial stage emission value against the horseradish POD-labeled antibodies [4] of over 14 times. For the same substance, the initial stage emission value [5] was 300000 RLU.

“Peroxidase-conjugated AffiniPure F(ab′)2 Fragment Goat Anti-mouse IgG (H+L) (mfd. by Jackson ImmunoResearch Labs.)” was tested, and the absorbance at 405 nm [2] was 0.3, the absorbance at 405 nm [8] was 1.4 and the absorbance at 405 nm [11] was 0.45.

“Peroxidase-conjugated AffiniPure Goat Anti-mouse IgG (H+L) (mfd. by Jackson ImmunoResearch Labs.) (antibody)” gave an absorbance at 405 nm [2] of 0.3, an initial stage emission value [5] of 100000 RLU and an absorbance at 405 nm [8] of 1.4.
